Measured values published in patent US20190256584A1 (University of California, published 2019).
Positions count from the first letter of the chain named.

T1: Botulinum neurotoxin serotype C (BoNT/C) (Clostridium botulinum, UniProt P18640 2-1291)
T1 sequence: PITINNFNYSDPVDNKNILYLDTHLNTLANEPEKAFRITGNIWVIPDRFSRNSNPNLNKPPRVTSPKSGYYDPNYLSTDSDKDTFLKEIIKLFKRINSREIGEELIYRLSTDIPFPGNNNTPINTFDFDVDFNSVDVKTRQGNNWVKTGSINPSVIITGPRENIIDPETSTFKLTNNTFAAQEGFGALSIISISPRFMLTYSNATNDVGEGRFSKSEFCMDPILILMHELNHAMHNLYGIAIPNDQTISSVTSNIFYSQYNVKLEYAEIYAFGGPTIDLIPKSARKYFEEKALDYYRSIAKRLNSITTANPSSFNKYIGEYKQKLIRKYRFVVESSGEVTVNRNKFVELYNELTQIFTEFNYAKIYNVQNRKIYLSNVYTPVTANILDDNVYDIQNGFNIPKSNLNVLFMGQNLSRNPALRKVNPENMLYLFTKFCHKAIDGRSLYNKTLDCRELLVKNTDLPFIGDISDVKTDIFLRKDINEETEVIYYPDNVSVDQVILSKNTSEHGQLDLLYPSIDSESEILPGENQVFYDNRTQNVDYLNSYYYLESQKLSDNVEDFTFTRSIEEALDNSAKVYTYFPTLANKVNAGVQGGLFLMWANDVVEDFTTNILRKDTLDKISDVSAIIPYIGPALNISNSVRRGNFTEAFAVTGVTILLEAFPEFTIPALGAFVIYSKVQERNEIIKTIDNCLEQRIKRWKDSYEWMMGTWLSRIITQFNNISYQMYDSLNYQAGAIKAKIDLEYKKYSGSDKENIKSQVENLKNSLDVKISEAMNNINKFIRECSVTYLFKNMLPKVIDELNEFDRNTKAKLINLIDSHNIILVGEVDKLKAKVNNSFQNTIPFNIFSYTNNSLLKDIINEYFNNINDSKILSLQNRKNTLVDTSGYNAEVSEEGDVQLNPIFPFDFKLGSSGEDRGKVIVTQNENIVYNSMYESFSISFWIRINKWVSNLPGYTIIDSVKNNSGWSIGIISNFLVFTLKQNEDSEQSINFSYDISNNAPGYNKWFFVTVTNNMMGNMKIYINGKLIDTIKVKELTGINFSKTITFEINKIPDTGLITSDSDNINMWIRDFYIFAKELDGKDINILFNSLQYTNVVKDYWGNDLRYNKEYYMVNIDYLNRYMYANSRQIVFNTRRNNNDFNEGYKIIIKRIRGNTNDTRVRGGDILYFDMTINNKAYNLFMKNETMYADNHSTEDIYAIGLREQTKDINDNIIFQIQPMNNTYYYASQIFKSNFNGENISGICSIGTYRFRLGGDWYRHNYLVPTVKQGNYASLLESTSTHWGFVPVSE

B1: 4C10.5 IgG (antibody, V domains shown)
VH: QVQLVQSGGGVVQPGRSLRLSCGASRFTFSGFDMHWVRQAPGKGLEWVARISHDGSMADYADSLRGRFTISRDNSKNTLYLQMNSLRVEDTALYYCAKDRWRSGSYPAFEIWGQGTMVTVSS
VL: EIVLTQSPSFLSAFVGDRITITCRASQGISNRLAWYQQKPGKAPNLLIHPASTLQSGVPSRFSGSGSGTDFTLTISSLQPEDFATYYCQQANSFPLTFGGGTKVEIKR
B2: 4C10.20 IgG (antibody, V domains shown)
VH: B1 VH with R100P
VL: B1 VL with V15I, S30G, H49Y
B3: 4C10.18 IgG (antibody, V domains shown)
VH: B1 VH with V12A
VL: B1 VL with S30G, N92H, S93R
B4: 4C10.17 IgG (antibody, V domains shown)
VH: B1 VH
VL: B1 VL with T53S
B5: 4C10.22 IgG (antibody, V domains shown)
VH: B1 VH with R26G, T28K, R100P
VL: B1 VL with V15I, H49Y
B6: 4C10.15 IgG (antibody, V domains shown)
VH: B1 VH
VL: B1 VL with Q27K, S30G
B7: 4C10.23 IgG (antibody, V domains shown)
VH: B1 VH with R26G, T28K
VL: B1 VL with Q27K, S30G
B8: 4C10.8 IgG (antibody, V domains shown)
VH: B1 VH with R100P
VL: B1 VL with V15I, H49Y

biological target: T1, Botulinum neurotoxin serotype C (BoNT/C); assay: range-finding KinExA, IgG

Binder	Kd [nM]
B1	0.0651
B2	0.00102
B3	0.0108
B4	0.0325
B5	0.00192
B6	0.0122
B7	0.00665
B8	0.0035

biological target: T1, Botulinum neurotoxin serotype C (BoNT/C); assay: KinExA, IgG

Binder	Kd [nM]
B1	0.0651
B2	0.00102
B3	0.0108
B4	0.0325
B5	0.00192
B6	0.0122
B7	0.00665
B8	0.0035

biological target: Botulinum neurotoxin mosaic BoNT/DC (Clostridium botulinum); assay: KinExA, IgG

Binder	Kd [nM]
B1	0.987
B2	0.0166
B3	0.109
B4	0.766
B5	0.0604
B6	0.112
B7	0.0904
B8	0.0564

biological target: Botulinum neurotoxin mosaic BoNT/DC (Clostridium botulinum); assay: range-finding KinExA, IgG

Binder	Kd [nM]
B1	0.987
B2	0.0166
B3	0.109
B4	0.766
B5	0.0604
B6	0.112
B7	0.0904
B8	0.0564
